Test results published in article doi:10.1101/2023.07.10.548322.

What was measured:
Assay in all cases: SPR
[1] = target: alpha-synuclein (aSyn) WT (human, UniProt P37840 1-140)
aSyn dCterm = aSyn dCterm (UniProt P37840 1-95, del96-140)
aSyn dNAC = aSyn dNAC (UniProt P37840 1-140, del61-95)

| Binder | binding result [1] | Kd [1] | binding result (aSyn dCterm) | binding result (aSyn dNAC) |
| --- | --- | --- | --- | --- |
| UUACCGUUACCGUUACCGUUACCG (ssRNA) [G4mt biotin] | no binding |  |  |  |
| UUAGGGUUAGGGUUAGGGUUAGGG (structured_RNA) [G4tr biotin] |  | 3.63 ± 0.63 µM | binds | binds |
